Sequences and labels used below:
T1: human FB5 (endosialin) cancer antigen (human, UniProt Q9HCU0 18-757)
T1 construct: whole, on cells; The antigen is presented on LA1-5s cells; also called FB5 antigen
T1 sequence (looked up): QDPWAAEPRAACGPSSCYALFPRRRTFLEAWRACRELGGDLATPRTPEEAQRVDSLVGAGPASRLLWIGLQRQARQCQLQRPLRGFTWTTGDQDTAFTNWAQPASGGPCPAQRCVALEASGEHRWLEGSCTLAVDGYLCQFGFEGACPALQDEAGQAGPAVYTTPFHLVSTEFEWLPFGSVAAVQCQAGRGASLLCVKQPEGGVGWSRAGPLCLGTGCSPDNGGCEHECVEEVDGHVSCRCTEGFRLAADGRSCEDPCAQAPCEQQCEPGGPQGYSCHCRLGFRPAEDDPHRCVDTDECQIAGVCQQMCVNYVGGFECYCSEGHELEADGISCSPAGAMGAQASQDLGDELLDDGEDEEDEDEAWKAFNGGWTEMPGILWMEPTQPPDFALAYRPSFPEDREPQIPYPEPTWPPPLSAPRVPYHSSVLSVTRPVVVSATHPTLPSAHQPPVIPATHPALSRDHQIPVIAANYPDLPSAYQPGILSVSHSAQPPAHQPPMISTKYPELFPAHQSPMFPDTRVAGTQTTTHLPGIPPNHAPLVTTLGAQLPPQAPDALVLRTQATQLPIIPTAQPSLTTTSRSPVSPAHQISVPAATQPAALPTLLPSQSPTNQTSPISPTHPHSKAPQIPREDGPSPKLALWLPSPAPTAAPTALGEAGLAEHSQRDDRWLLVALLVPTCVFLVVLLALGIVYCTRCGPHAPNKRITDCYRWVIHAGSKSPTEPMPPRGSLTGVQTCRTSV

B1: FB5HuVHK/HuVK (antibody, V domains shown)
VH: QVQLQESGPGLVRPSQTLSLTCTASGYTFTDYVIHWVKQPPGRGLEWIGYINPYDDDTTYNQKFKGRVTMLVDTSSNTAYLRLSSVTAEDTAVYYCARRGNSYDGYFDYSMDYWGQGSLVTVSS
VL: DIQMTQSPSSLSASVGDRVTITCRASQNVGTAVAWLQQTPGKAPKLLIYSASNRYTGVPSRFSGSGSGTDYTFTISSLQPEDIATYYCQQYTNYPMYTFGQGTKVQIK
B2: FB5HuVHK,QA,LT,VK/HuVK (antibody, V domains shown)
VH: QVQLQESGPGLVRPSQTLSLTCTASGYTFTDYVIHWVKQPPGRGLEWIGYINPYDDDTTYNQKFKGQATLTVVKSSNTAYLRLSSVTAEDTAVYYCARRGNSYDGYFDYSMDYWGQGSLVTVSS
VL: DIQMTQSPSSLSASVGDRVTITCRASQNVGTAVAWLQQTPGKAPKLLIYSASNRYTGVPSRFSGSGSGTDYTFTISSLQPEDIATYYCQQYTNYPMYTFGQGTKVQIK
B3: FB5HuVH/HuVK (antibody, V domains shown)
VH: QVQLQESGPGLVRPSQTLSLTCTASGYTFTDYVIHWVRQPPGRGLEWIGYINPYDDDTTYNQKFKGRVTMLVDTSSNTAYLRLSSVTAEDTAVYYCARRGNSYDGYFDYSMDYWGQGSLVTVSS
VL: DIQMTQSPSSLSASVGDRVTITCRASQNVGTAVAWLQQTPGKAPKLLIYSASNRYTGVPSRFSGSGSGTDYTFTISSLQPEDIATYYCQQYTNYPMYTFGQGTKVQIK
notes: also called reshaped antibody FB5HuVH/HuVK

The target of the test is T1, human FB5 (endosialin) cancer antigen. Briefly: mixed hemadsorption (MHA) rosetting assay on LA1-5s human neuroblastoma cells, protein A-conjugated red blood cells as indicator.
Regarding murine monoclonal antibody mAbFB5, the Concentration of antibody for 50% rosetting turned out to be 3 ng/mL.

In turn, chimeric FB5 antibody came in with a Concentration of antibody for 50% rosetting of 3 ng/mL.

Consider B1, for which the “Concentration of antibody for 50% rosetting” value amounted to 16 ng/mL.

In the case of B2, the “Concentration of antibody for 50% rosetting” value came to 16 ng/mL.

Consider B3, for which the “Concentration of antibody for 50% rosetting” value came out at 80 ng/mL.

The record behind these values is patent US6391302 (LUDWIG INSTITUTE FOR CANCER RESEARCH, dated 2002).
